The record followed here is patent US20240270865A1 (INNATE PHARMA, published 2024).

The target of this test is T1, recombinant human soluble CD73 protein (cloned huCD73 with C-terminal 6xHis tag) (human, UniProt P21589 27-547).
T1 construct: also called recombinant CD73 protein; CD73 recombinant protein
T1 sequence: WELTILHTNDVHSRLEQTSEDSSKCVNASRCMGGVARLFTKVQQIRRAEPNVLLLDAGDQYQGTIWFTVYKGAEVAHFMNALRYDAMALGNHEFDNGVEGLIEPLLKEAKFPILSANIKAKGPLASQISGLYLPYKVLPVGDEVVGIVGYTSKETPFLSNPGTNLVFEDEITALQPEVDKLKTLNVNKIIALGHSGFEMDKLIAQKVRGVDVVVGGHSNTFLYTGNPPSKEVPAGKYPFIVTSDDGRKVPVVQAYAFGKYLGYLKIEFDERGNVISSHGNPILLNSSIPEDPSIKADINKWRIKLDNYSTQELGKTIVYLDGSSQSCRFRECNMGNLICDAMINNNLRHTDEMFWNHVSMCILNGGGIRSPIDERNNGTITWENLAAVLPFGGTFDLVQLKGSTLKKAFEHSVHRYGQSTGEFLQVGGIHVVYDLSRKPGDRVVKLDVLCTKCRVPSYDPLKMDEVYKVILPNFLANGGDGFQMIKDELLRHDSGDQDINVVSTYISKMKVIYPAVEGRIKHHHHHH
The test can be described thus: SPR, recombinant CD73 protein. As to the method: SPR measurements were performed on a Biacore™ T200 apparatus at 25° C. Protein-A (GE Healthcare) was immobilized on a Sensor Chip CM5 (GE Healthcare). […] The entire sensorgram sets were fitted using the 1:1 kinetic binding model. Bivalent affinities and kinetic association and dissociation rate constants are calculated.

B1: H2L2 (antibody, human IgG1, V domains shown)
VH: QIQLVQSGAEVKKPGASVKVSCKASGYAFTSYNMYWVRQAPGQSLEWMGYIDPYNGGSSYNLTFKGRVTITVDKSASTAYMELSSLRSEDTAVYYCARGYGNYKAWFAYWGQGTLVTVSS
VL: DIQMTQSPSSLSASVGDRVTITCKASQSVSNDVAWYQQKPGKAPKLLIYYASTRYTGVPDRFSGSGYGTDFTFTISSLQPEDIATYYCQQDYSSLTFGQGTKLEIK
notes: also called H2 variant
For B1, the binding result is “binds”.

B2: H3L3 (antibody, human IgG1, V domains shown)
VH: QIQLVQSGAEVKKPGASVKVSCKASGYAFTSYNMYWVRQAPGQSLEWIGYIDPYNGGSSYNLTFKGKATITVDKSASTAYMELSSLRSEDTAVYYCARGYGNYKAWFAYWGQGTLVTVSS
VL: DVQMTQSPSSLSASVGDRVTITCKASQSVSNDVAWYQQKPGKAPKLLIYYASTRYTGVPDRFSGSGYGTDFTFTISSLQPEDIATYYCQQDYSSLTFGQGTKLEIK
notes: also called H3 variant
B2: the binding result is “binds”.

B3: H4L3 (antibody, human IgG1, V domains shown)
VH: QIQLVQSGAEVKKPGASVKVSCKASGYAFASYNMYWVRQAPGQSLEWIGYIDPYNGGSSYNLTFKGKATLTVDKSASTAYMELSSLRSEDTAVYYCARGYGNYKAWFAYWGQGTLVTVSS
VL: DVQMTQSPSSLSASVGDRVTITCKASQSVSNDVAWYQQKPGKAPKLLIYYASTRYTGVPDRFSGSGYGTDFTFTISSLQPEDIATYYCQQDYSSLTFGQGTKLEIK
notes: also called H4 variant
On to B3, for which the binding result is on record as “binds”.

B4: H1L1 (antibody, human IgG1, V domains shown)
VH: QIQLVQSGAEVKKPGASVKVSCKASGYTFTSYNMYWVRQAPGQRLEWMGYIDPYNGGSSYNLTFKGRVTITRDKSASTAYMELSSLRSEDTAVYYCARGYGNYKAWFAYWGQGTLVTVSS
VL: DIQMTQSPSSLSASVGDRVTITCKASQSVSNDVAWYQQKPGKAPKLLIYYASTRYTGVPSRFSGSGYGTDFTFTISSLQPEDIATYYCQQDYSSLTFGQGTKLEIK
notes: also called H1 variant
Regarding B4, the binding result is “binds”.

B5: H1L4 (antibody, human IgG1, V domains shown)
VH: QIQLVQSGAEVKKPGASVKVSCKASGYTFTSYNMYWVRQAPGQRLEWMGYIDPYNGGSSYNLTFKGRVTITRDKSASTAYMELSSLRSEDTAVYYCARGYGNYKAWFAYWGQGTLVTVSS
VL: DVQMTQSPSSLSASVGDRVTITCKASQSVSNDVAWYQQKPGKAPKLLIYYASTRYTGVPDRFSGSGYGTDFTFTISSLQPEDIATYFCQQDYSSLTFGQGTKLEIK
notes: also called H1 variant
With B5, the binding result is given as “binds”.

B6: H1L3 (antibody, human IgG1, V domains shown)
VH: QIQLVQSGAEVKKPGASVKVSCKASGYTFTSYNMYWVRQAPGQRLEWMGYIDPYNGGSSYNLTFKGRVTITRDKSASTAYMELSSLRSEDTAVYYCARGYGNYKAWFAYWGQGTLVTVSS
VL: DVQMTQSPSSLSASVGDRVTITCKASQSVSNDVAWYQQKPGKAPKLLIYYASTRYTGVPDRFSGSGYGTDFTFTISSLQPEDIATYYCQQDYSSLTFGQGTKLEIK
notes: also called H1 variant
Consider B6, for which the binding result is recorded as “binds”.

B7: H2L1 (antibody, human IgG1, V domains shown)
VH: QIQLVQSGAEVKKPGASVKVSCKASGYAFTSYNMYWVRQAPGQSLEWMGYIDPYNGGSSYNLTFKGRVTITVDKSASTAYMELSSLRSEDTAVYYCARGYGNYKAWFAYWGQGTLVTVSS
VL: DIQMTQSPSSLSASVGDRVTITCKASQSVSNDVAWYQQKPGKAPKLLIYYASTRYTGVPSRFSGSGYGTDFTFTISSLQPEDIATYYCQQDYSSLTFGQGTKLEIK
notes: also called H2 variant
For B7, the binding result was “binds”.

B8: H1L2 (antibody, human IgG1, V domains shown)
VH: QIQLVQSGAEVKKPGASVKVSCKASGYTFTSYNMYWVRQAPGQRLEWMGYIDPYNGGSSYNLTFKGRVTITRDKSASTAYMELSSLRSEDTAVYYCARGYGNYKAWFAYWGQGTLVTVSS
VL: DIQMTQSPSSLSASVGDRVTITCKASQSVSNDVAWYQQKPGKAPKLLIYYASTRYTGVPDRFSGSGYGTDFTFTISSLQPEDIATYYCQQDYSSLTFGQGTKLEIK
notes: also called H1 variant
In the case of B8, the binding result is reported as “binds”.

B9: H2L3 (antibody, human IgG1, V domains shown)
VH: QIQLVQSGAEVKKPGASVKVSCKASGYAFTSYNMYWVRQAPGQSLEWMGYIDPYNGGSSYNLTFKGRVTITVDKSASTAYMELSSLRSEDTAVYYCARGYGNYKAWFAYWGQGTLVTVSS
VL: DVQMTQSPSSLSASVGDRVTITCKASQSVSNDVAWYQQKPGKAPKLLIYYASTRYTGVPDRFSGSGYGTDFTFTISSLQPEDIATYYCQQDYSSLTFGQGTKLEIK
notes: also called H2 variant
For B9, the binding result is reported as “binds”.

B10: H4L1 (antibody, human IgG1, V domains shown)
VH: QIQLVQSGAEVKKPGASVKVSCKASGYAFASYNMYWVRQAPGQSLEWIGYIDPYNGGSSYNLTFKGKATLTVDKSASTAYMELSSLRSEDTAVYYCARGYGNYKAWFAYWGQGTLVTVSS
VL: DIQMTQSPSSLSASVGDRVTITCKASQSVSNDVAWYQQKPGKAPKLLIYYASTRYTGVPSRFSGSGYGTDFTFTISSLQPEDIATYYCQQDYSSLTFGQGTKLEIK
notes: also called H4 variant
B10: the binding result was “binds”.

B11: H2L4 (antibody, human IgG1, V domains shown)
VH: QIQLVQSGAEVKKPGASVKVSCKASGYAFTSYNMYWVRQAPGQSLEWMGYIDPYNGGSSYNLTFKGRVTITVDKSASTAYMELSSLRSEDTAVYYCARGYGNYKAWFAYWGQGTLVTVSS
VL: DVQMTQSPSSLSASVGDRVTITCKASQSVSNDVAWYQQKPGKAPKLLIYYASTRYTGVPDRFSGSGYGTDFTFTISSLQPEDIATYFCQQDYSSLTFGQGTKLEIK
notes: also called H2 variant
For B11, the binding result is given as “binds”.

B12: H3L2 (antibody, human IgG1, V domains shown)
VH: QIQLVQSGAEVKKPGASVKVSCKASGYAFTSYNMYWVRQAPGQSLEWIGYIDPYNGGSSYNLTFKGKATITVDKSASTAYMELSSLRSEDTAVYYCARGYGNYKAWFAYWGQGTLVTVSS
VL: DIQMTQSPSSLSASVGDRVTITCKASQSVSNDVAWYQQKPGKAPKLLIYYASTRYTGVPDRFSGSGYGTDFTFTISSLQPEDIATYYCQQDYSSLTFGQGTKLEIK
notes: also called H3 variant
Turning to B12, the binding result was “binds”.

B13: H3L4 (antibody, human IgG1, V domains shown)
VH: QIQLVQSGAEVKKPGASVKVSCKASGYAFTSYNMYWVRQAPGQSLEWIGYIDPYNGGSSYNLTFKGKATITVDKSASTAYMELSSLRSEDTAVYYCARGYGNYKAWFAYWGQGTLVTVSS
VL: DVQMTQSPSSLSASVGDRVTITCKASQSVSNDVAWYQQKPGKAPKLLIYYASTRYTGVPDRFSGSGYGTDFTFTISSLQPEDIATYFCQQDYSSLTFGQGTKLEIK
notes: also called H3 variant
On to B13, for which the binding result was “binds”.

B14: H3L1 (antibody, human IgG1, V domains shown)
VH: QIQLVQSGAEVKKPGASVKVSCKASGYAFTSYNMYWVRQAPGQSLEWIGYIDPYNGGSSYNLTFKGKATITVDKSASTAYMELSSLRSEDTAVYYCARGYGNYKAWFAYWGQGTLVTVSS
VL: DIQMTQSPSSLSASVGDRVTITCKASQSVSNDVAWYQQKPGKAPKLLIYYASTRYTGVPSRFSGSGYGTDFTFTISSLQPEDIATYYCQQDYSSLTFGQGTKLEIK
notes: also called H3 variant
Take B14: the binding result is given as “binds”.

B15: H4L2 (antibody, human IgG1, V domains shown)
VH: QIQLVQSGAEVKKPGASVKVSCKASGYAFASYNMYWVRQAPGQSLEWIGYIDPYNGGSSYNLTFKGKATLTVDKSASTAYMELSSLRSEDTAVYYCARGYGNYKAWFAYWGQGTLVTVSS
VL: DIQMTQSPSSLSASVGDRVTITCKASQSVSNDVAWYQQKPGKAPKLLIYYASTRYTGVPDRFSGSGYGTDFTFTISSLQPEDIATYYCQQDYSSLTFGQGTKLEIK
notes: also called H4 variant
As to B15, the binding result is reported as “binds”.

B16: H4L4 (antibody, human IgG1, V domains shown)
VH: QIQLVQSGAEVKKPGASVKVSCKASGYAFASYNMYWVRQAPGQSLEWIGYIDPYNGGSSYNLTFKGKATLTVDKSASTAYMELSSLRSEDTAVYYCARGYGNYKAWFAYWGQGTLVTVSS
VL: DVQMTQSPSSLSASVGDRVTITCKASQSVSNDVAWYQQKPGKAPKLLIYYASTRYTGVPDRFSGSGYGTDFTFTISSLQPEDIATYFCQQDYSSLTFGQGTKLEIK
notes: also called H4 variant
Consider B16, for which the binding result is reported as “binds”.
